# Laboratory results as given in the supplement of paper PMC12042874.
# ± gives the uncertainty stated by the source.
# Assay: amyloid nucleation score (Sup35N fusion, yeast selection) (log enrichment); library NNK2; higher = more nucleation; inactive = no reads after selection
# Summary of the method: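 Random libraries were run with three technical output replicates. In each, psi-negative yeast expressing Sup35N fused to peptides of 20 random codons were induced 24 hours with 100 μM copper sulfate and grown 7 days at 30°C on medium lacking adenine and uracil, and input and output plasmid inserts were Illumina-sequenced. The nucleation score is the DiMSum log enrichment of output over input reads, centred on the mode score of non-aggregating sequences, and sequences under 100 input reads were excluded.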
row,Substance,amyloid nucleation score
1,DASMQF,0.797 ± 0.57
2,DCFFFKSWVSLGKIMLSTFS,-0.997 ± 1.1
3,DCNVWSSSERKVLSRGTSDF,-0.193 ± 0.31
4,DCSLELVNRRGSGIVQCAGY,1.1 ± 0.38
5,DCWNCIISGSSALCAHVQSV,inactive
6,DCYRPYWKVFIPLVIFGA,-0.076 ± 0.55
7,DDRELL,-0.32 ± 0.63
8,DDSFGVAVMKVWEMRGWSAL,1.16 ± 0.27
9,DDSMHWFYLLGWIPVGSKGG,inactive
10,DDWVSGEEFGRSRNLNHFPD,-1.56 ± 0.48
11,DDYTDTCRCDMFRFSEFLTN,-0.534 ± 0.74
12,DEEGRVSPDVARLVAVICGA,0.413 ± 0.39
13,DFCCWCPFCYVSWYEGIVMI,0.305 ± 1
14,DFFVLVGYGKVK,0.595 ± 0.53
15,DFIEMVLDGCSHGLATVCPT,inactive
16,DFSIQWCTSSINYVLYFAI,-1.89 ± 0.44
17,DFVPNGCNCINSGWDFRQVD,-1.88 ± 0.64
18,DFWFSGDFK,-0.778 ± 0.44
19,DGELVVWFMVMSWWNIKDSK,-0.446 ± 1
20,DGFRTYIVRWEATVANSLVV,0.736 ± 0.52
21,DGFSYDPFSMVSIVVRFVVG,0.99 ± 0.32
22,DGFYG,inactive
23,DGKFRRVTLRGPLA,0.554 ± 0.56
24,DGPWGSMDTRYNSS,0.479 ± 0.74
25,DGSMFGPDVCFYIVSLILPF,5.03 ± 0.07

row,Substance,amyloid nucleation score
1,DGTAFMARPKETSIPDVSSS,-0.593 ± 0.33
2,DGTYLQNRRDFNNGSARRGW,0.984 ± 0.57
3,DHCDAVNSFEEWLMRGVPYN,-0.06 ± 0.45
4,DHIVYTLGCWGLRSPFKPLL,0.026 ± 1.1
5,DHNGVKSTSHKSSFFMSTGR,0.056 ± 0.39
6,DHRVLQWLTAPY,0.353 ± 0.36
7,DHSYRRYVVEGLFSVSQNGK,0.21 ± 0.54
8,DICVKSRRSRPRV,0.591 ± 0.51
9,DIERQAVNRPVGRLGKTEDS,0.242 ± 0.77
10,DIFLM,0.487 ± 0.15
11,DIIRMGFRPFWQGVCVRLSY,-0.669 ± 0.63
12,DILGFCLSCMLRVGLFTWGR,inactive
13,DITLFYSDTSCRFSVPCSVD,0.598 ± 0.46
14,DKKLIFRWAITVMIRIPART,1.65 ± 0.48
15,DKTKE,inactive
16,DKTVIPLCFLHFNRT,-1.35 ± 0.78
17,DKYNTVRLCP,0.987 ± 0.5
18,DLEVLSLGGINFFVVDTFMI,0.964 ± 0.28
19,DLGAFRLRR,-2.19 ± 0.54
20,DLKRLAWMLILSIYNRSTIM,-0.221 ± 1.1
21,DLRLYILNL,6.556 ± 0.055
22,DLRRGSRRWRKYGTGECGLL,0.43 ± 0.32
23,DLRSWVFWNTSAYYIFSTDS,-1.32 ± 0.36
24,DLSCGGRLKMNHYKA,-0.686 ± 0.76
25,DLSNSIVLLGFDNSQWLRDA,1.78 ± 0.095

row,Substance,amyloid nucleation score
1,DLSQYDCVNVFALPGWCNNT,4.35 ± 0.048
2,DLVSLLSGVFVMFVGLCFEV,-0.733 ± 1.1
3,DLYMNEASTALGLGRGFLWG,-0.553 ± 1.1
4,DMCLW,-0.625 ± 0.33
5,DMMCLLFGAKFNVQTGTHS,5.231 ± 0.052
6,DMNEDVGLGNKFC,0.119 ± 0.54
7,DMNLRLSEWVDFCSIGLFVK,-0.272 ± 0.35
8,DMSIRRRI,-0.419 ± 0.32
9,DMWQGEFKLGPRFSDENSQF,-0.172 ± 1.1
10,DNCLASVFINVKEFSHLCLW,-0.451 ± 0.79
11,DNFYCHHVDLFSWMIRADLA,-0.847 ± 0.64
12,DNGCELPFLFFMFASTVKWS,-0.78 ± 1.1
13,DNKRWLRIWMKFLKGDMHGL,-0.283 ± 1.1
14,DNQGSLDNSSLCTVYSGFSV,inactive
15,DNRNCPAHWWASFTMKPGSE,0.14 ± 0.49
16,DNSHWI,0.903 ± 0.47
17,DNSYVMDLECLICCNFSNTK,8.201 ± 0.025
18,DNYITLIAMKGYKTAYSTVS,-0.116 ± 0.61
19,DRARRVVIIWVYLIDRVNVR,0.004 ± 1.1
20,DRAYDVCGRSRRWYQKKLGM,-0.667 ± 0.49
21,DRHYCQKGEWRKDEDVFPVE,0.13 ± 1.1
22,DRINSFLFRETVWQNNWVIS,-0.263 ± 0.79
23,DRLAILSNFGVVMIPTLRLY,-0.09 ± 0.4
24,DRLTG,-0.705 ± 1.1
25,DRMLCWDLGVIKNVLRTRVL,-0.354 ± 0.55

row,Substance,amyloid nucleation score
1,DRMQVRSR,0.944 ± 0.27
2,DRPALCSLCSETSVVNTLHL,5.74 ± 0.064
3,DRPSCEFEPMFRRWDYSEGA,0.11 ± 0.23
4,DRPVCMYNMF,1.63 ± 0.28
5,DRRMGLIVPRMSDRTDPFSY,0.489 ± 0.29
6,DRYISLCGW,-0.086 ± 0.56
7,DSASNVW,0.553 ± 0.37
8,DSDHFA,-1.58 ± 0.78
9,DSEGSA,inactive
10,DSEPVYYTVNFNQLLSRLYY,1.52 ± 0.32
11,DSFIVYVR,-0.072 ± 0.63
12,DSGCKFAAPCSVYPLFLFDM,-0.788 ± 1.1
13,DSGRCFSFKWFCYFQHHHEV,2.18 ± 0.17
14,DSHADAISVAVKVGRWRYND,1.53 ± 0.23
15,DSILLSLCPTNCFKN,-0.148 ± 0.63
16,DSLEGVSCSLMSLSTLTGEC,0.143 ± 0.54
17,DSNTPHASMRYISFKRFFFV,-0.107 ± 1
18,DSPQHHECIMVWL,4.38 ± 0.064
19,DSSGVGTRLDCKLCFENLID,-0.952 ± 0.47
20,DSSIAYFIGVLASIGADEDR,6.452 ± 0.061
21,DSSKSMCLICSNCILNFSEM,8.698 ± 0.049
22,DSSSCYMYLCTGNYPDNFNF,4.5 ± 0.084
23,DSVGMVRTLVWDWGQATNGR,0.953 ± 0.51
24,DTERRC,-1.06 ± 0.61
25,DTFPKHSQHAVVKRPQIYID,-1.04 ± 1.1

row,Substance,amyloid nucleation score
1,DTGSGAPVIKYCVAVPRSFT,0.306 ± 0.57
2,DTPCSYISCMCNTIL,9.453 ± 0.03
3,DTRFEVNAFTIGNRYATNGS,-0.869 ± 0.41
4,DVACNTRKPCS,-0.908 ± 0.78
5,DVCGD,-0.566 ± 0.48
6,DVDEVW,-1.09 ± 0.61
7,DVGSPWLNYSSFFIFWSTIS,-1.02 ± 1.1
8,DVHHRIIMMLLGGFWYACGY,-0.428 ± 0.27
9,DVIYNERTYLLFLTPHTMVV,-0.991 ± 0.63
10,DVLEIFVMTRGIVEVNPDSN,8.665 ± 0.031
11,DVLRLTQTANLLCSSALRSA,1.07 ± 0.12
12,DVLWTLQLLFDPVGLCLAMK,0.391 ± 0.41
13,DVSLNRGVRPF,-0.123 ± 0.76
14,DVSNLWFTNFCGFWGKYVVK,inactive
15,DVVMG,0.701 ± 0.51
16,DVVNVSYGPVITFMSVFRVS,7.556 ± 0.051
17,DWCTAAGDEMDMVVGGKVPN,0.427 ± 0.34
18,DWCVNVIERSGDTLEVMCNF,0.817 ± 0.8
19,DWFCVHKV,0.058 ± 1
20,DWFVSGTSDRVVGNSAGGGV,0.589 ± 0.66
21,DWLNSVFFLPFKCGLCVLRA,0.06 ± 0.4
22,DWQRRFAQIMIRGFNVILVT,0.097 ± 1.1
23,DYCLSSICFLIDVGESFERG,0.171 ± 0.44
24,DYFSNLIVDLTFLSGSFVFV,-0.578 ± 1.1
25,DYGEGLPNSMCCLVSFQ,0.057 ± 1.1

row,Substance,amyloid nucleation score
1,DYLIAIQLYDFYVHGLIKYR,-0.853 ± 0.78
2,DYSLSWVRYSFAYRGVSKDG,0.061 ± 0.12
3,DYTNSTAEGFTF,inactive
4,DYVCGGGFLTKDVSACGLYV,0.685 ± 0.46
5,DYVRCVDLSN,-0.863 ± 0.63
6,DYWFLCAICLWVFTGMYLVE,0.01 ± 0.28
7,EACLNGAA,0.638 ± 0.18
8,ECLKYRYSFFNWTSTSVFHA,-0.435 ± 0.79
9,ECLTLFRTGRM,5.306 ± 0.037
10,ECNTSVLSTWARDLVSPVLT,4.3 ± 0.053
11,ECRRF,2.78 ± 0.12
12,EDGGLCSASVRLYG,0.379 ± 0.33
13,EDLYFTTGMLAKKCGPQGMG,5.04 ± 0.069
14,EDRVCAYLNRKYCRYLGHSM,1.29 ± 0.35
15,EEWTVNCC,5.766 ± 0.046
16,EFAELSSRQRFWHMFV,1.04 ± 0.34
17,EFVISKNSVPSPCRCW,0.382 ± 0.8
18,EFWANRYGNHPLLGIHHCSP,0.135 ± 0.77
19,EGCHVGNLDCLPSETATVSV,0.143 ± 0.79
20,EGIVSMFVIRVYV,0.63 ± 0.46
21,EGRHNV,inactive
22,EGSNNVVVRDSAVYQVSGEM,-0.375 ± 1.1
23,EHHYI,-0.202 ± 1
24,EHVVSSRRLYLQGDILLNSQ,inactive
25,EICLDAITVVPLHGSIRLTV,0.764 ± 0.25

row,Substance,amyloid nucleation score
1,EIEEYWGV,-0.125 ± 0.63
2,EIFAGICSSLAFKGHGRKSG,6.29 ± 0.065
3,EILLR,0.269 ± 0.8
4,EILRSGMSCIWVLYDFIGI,-0.437 ± 1
5,EISAMVAL,-1.06 ± 0.54
6,EIVLFFCPVVKCME,3.08 ± 0.098
7,EIVQFLLHMYGSVREAMVAL,-1.05 ± 0.56
8,EKIFPLMGVKN,inactive
9,EKNTMDF,1.64 ± 0.19
10,EKRMNLVHYREYLPPFKRSN,-0.403 ± 1
11,ELCPAT,0.219 ± 0.3
12,ELCRCITFGLVCTFACYWVC,0.592 ± 0.2
13,ELLQVEYNHHDSKEFMLVMI,0.239 ± 0.43
14,ELPGPHSGVTPPACEWSTHP,0.422 ± 0.24
15,ELRISPPDNRLWDPQ,0.183 ± 1
16,ELTSLQVMLSNDEMMGGRVN,0.064 ± 0.3
17,ELWRYDINIERYKSTRSVYH,3.08 ± 0.055
18,EMGVGSYSGRCATSGGSNLQ,0.929 ± 0.27
19,EMSVRPGVSRKIWS,0.43 ± 0.49
20,ENDMLTYYSLLFYWIKIVSY,inactive
21,ENGAKVLVIVYKGYPLVPWV,-0.089 ± 0.46
22,ENKILMGAWEVFWTYSEHPW,inactive
